Paper PMC3253312 (Steroids, 2011)
Residue numbers refer to the chain shown, from its start. In names and notes the source's numbering stands.

Substrate: C[C@]12CCC(=O)C=C1CC[C@@H]1[C@@H]2CC[C@]2(C)C(=O)CC[C@@H]12
Assay: cells, lysate or membranes
Settings: substrate

B1: wild-type aromatase (Homo sapiens) (protein)
chain: MVLEMLNPIHYNITSIVPEAMPAATMPVLLLTGLFLLVWNYEGTSSIPGPGYCMGIGPLISHGRFLWMGIGSACNYYNRVYGEFMRVWISGEETLIISKSSSMFHIMKHNHYSSRFGSKLGLQCIGMHEKGIIFNNNPELWKTTRPFFMKALSGPGLVRMVTVCAESLKTHLDRLEEVTNESGYVDVLTLLRRVMLDTSNTLFLRIPLDESAIVVKIQGYFDAWQALLIKPDIFFKISWLYKKYEKSVKDLKDAIEVLIAEKRRRISTEEKLEECMDFATELILAEKRGDLTRENVNQCILEMLIAAPDTMSVSLFFMLFLIAKHPNVEEAIIKEIQTVIGERDIKIDDIQKLKVMENFIYESMRYQPVVDLVMRKALEDDVIDGYPVKKGTNIILNIGRMHRLEFFPKPNEFTLENFAKNVPYRYFQPFGFGPRGCAGKYIAMVMMKAILVTLLRRFHVKTLQGQCVESIQKIHDLSLHPDETKNMLEMIFTPRNSDRCLEH
Protein B1 has a Km (other: WT aromatase) of 0.0273 ± 0.0025 µM and a Vmax (other: WT aromatase) of 5.32e-07 µmol/min/mg.

B2: aromatase M374T mutant (Homo sapiens; M374T) (protein)
chain: B1 chain with M374T
For B2, the Km (other: M374T mutant) was 0.0178 ± 0.002 µM and the Vmax (other: M374T mutant) was 4.5e-08 µmol/min/mg.

B3: aromatase F221Y mutant (Homo sapiens; F221Y) (protein)
chain: B1 chain with F221Y
B3 showed a Km (other: F221Y mutant) of 0.0029 ± 0.0003 µM and a Vmax (other: F221Y mutant) of 1.22e-07 µmol/min/mg.

B4: aromatase W224F mutant (Homo sapiens; W224F) (protein)
chain: B1 chain with W224F
Work on B4 yielded a Km (other: W224F mutant) of 0.067 ± 0.0051 µM and a Vmax (other: W224F mutant) of 1.18e-07 µmol/min/mg.
